Assay results taken from the supplement of paper PMC11811203.

B1: THAP1; numbered along this chain (parent)
chain: MVQSCSAYGCKNRYDKDKPVSFHKFPLTRPSLCKEWEAAVRRKNFKPTKYSSICSEHFTPDCFKRECNNKLLKENAVPTIFLCTEPHDKKEDLLEPQEQLPPPPLPPPVSQVDAAIGLLMPPLQTPVNLSVFCDHNYTVEDTMHQRKRIHQLEQQVEKLRKKLKTAQQRCRRQERQLEKLKEVVHFQKEKDDVSERGYVILPNDYFEIVEVPA

Variants of: B1
Assay: THAP1 transcriptional activity (GFP+/GFP- enrichment relative to wild-type constructs) (ratio to WT); higher = more THAP1 activity (PSMB5 reporter activation)
Conditions: with PSMB5 promoter-GFP reporter
Method in brief: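 A site-saturation library of human THAP1 (residues 2–213, each changed to all 20 amino acids) was transduced by lentivirus at MOI ~0.3, in duplicate, into THAP1-knockout HEK-293T cells carrying mClover3 knocked in at endogenous PSMB5. After five days, BFP+ cells were sorted into GFP-dim and GFP-bright bins, and variants were counted by Illumina sequencing of genomic DNA amplicons. Activity is the replicate-mean bright/dim read fold change divided by the mean of wild-type synonymous constructs.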

THAP1 transcriptional activity, by site and new letter:
V127: N 0.997; Y 0.411; A 0.82; F 0.642; S 1.39; T 0.875; P 0.879; C 0.636; D 0.851; H 0.843; K 1.64; M 0.396; R 1.19; I 0.501; G 0.609; L 0.775; E 0.897; Q 1.02; W 0.336
V131: S 0.28; Y 0.27; P 0.75; F 0.399; M 0.291; L 0.533; Q 0.386; W 0.261; C 0.427; I 0.81; H 0.401; K 0.299; G 0.244; T 0.276; E 0.239; N 0.494; R 0.367; A 0.451; D 0.241
C133: I 1.29; K 1.7; F 0.613; D 0.73; H 2.5; G 0.883; E 0.936; A 0.667
P126: V 0.434; I 0.18; G 0.386; Y 0.194; K 0.562; N 0.551; Q 0.962; H 0.531; S 1.11; C 0.294; T 0.484; A 0.618; L 0.216; E 0.744; F 0.178; R 0.51; D 1.02; W 0.207
N128: M 0.264; K 0.645; S 0.395; E 0.856; A 0.714; Q 0.507; F 0.259; C 0.306; H 0.446; P 0.417; W 0.283; Y 0.306; G 0.685; T 0.494; D 0.549; I 0.201; L 0.284; R 0.823; V 0.346
L129: Y 0.843; F 1.16; K 1.95; I 1.12; V 0.92; W 1.7; H 1; P 0.79; M 0.714; T 1.05; N 1.4; D 0.405; E 0.516; A 0.855; S 1.2; G 0.706; R 1.86; C 0.646; Q 0.659
T125: D 0.713; I 0.437; H 0.515; W 0.351; G 0.666; N 0.786; M 0.329; Y 0.322; P 0.865; R 0.432; E 1.1; F 0.212; K 1.4; V 0.325; Q 0.85; S 0.95; A 1.2; C 0.57; L 0.291
Q124: W 0.257; V 0.643; T 0.351; S 0.576; N 0.579; P 0.631; R 0.787; Y 0.592
S130: E 0.224; T 0.436; Y 0.1; G 0.946; D 0.555; R 0.271; L 0.324; N 0.651; K 0.625; V 0.196; I 0.104; W 0.276; C 0.265; M 0.164; H 0.517; Q 0.656; A 0.566; F 0.246; P 0.611
F132: I 0.806; C 0.597; W 0.329; N 0.635; T 0.436; K 1; P 0.285; A 0.892; L 1.12; G 0.49; E 0.425; Q 0.462; H 1.03; Y 0.392; R 0.942; D 0.363; M 1.06; S 0.452; V 0.402
